Test results published in US20200239586A1 (LA TROBE UNIVERSITY, published 2020).

T1: Histidine tagged mouse Fn14 extracellular domain (mouse, UniProt Q9CR75 28-80)
T1 construct: extracellular domain; also called mFn14; not shown: (His)6 tag from pET-15b
T1 sequence (looked up): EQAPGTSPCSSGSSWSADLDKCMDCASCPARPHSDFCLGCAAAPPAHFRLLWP


Columns and labels:
[1] = molecular target: phage expressed hFn14 mutant W42A (human, UniProt Q9NP84 28-77); assay: phage ELISA (Method 2), antibody on plate, phage dilution 1/X on the x axis
phage expressed hFn14 mutant W42A, sequence (Q9NP84 28-77 W42A): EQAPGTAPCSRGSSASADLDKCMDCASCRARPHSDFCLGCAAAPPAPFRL
From the text: (§1) For mutants P59A and F63A, binding was detected using HRP-conjugated anti-M13-phage polyclonal IgG and TMB substrate. For all other mutants binding was detected using Biotin-conjugated anti-M13-phage monoclonal antibody followed by HRP-conjugated Streptavidin and TMB substrate. Optical density at 450 nm was quantified using a Spectramax spectrophotometer. Error bars for each dilution represent the standard deviation of duplicate assays. FIG. 27A wild type Fn14, FIG. 27B W42A, FIG. 27C S54A, FIG. 27D A57G, FIG. 27E P59A, FIG. 27F S61A, FIG. 27G F63A, FIG. 27H L65A. In all cases error bars represent the standard deviation. X axis=dilution of phage. Methods according to Epitope mapping using phage expressed Fn14—Method 2
(§2) The wells of Maxisorp immunoplates (Nunc) were coated overnight at 4° C. with the target monoclonal antibodies or recombinant Tweak-Fc at a concentration of 1.5 μg/ml in PBS. mAb 5G8 was used as a negative control for ELISA plates coated with tested antibodies. […] 10-fold serial dilutions of phage were made using PBS solution and phage dilutions were added to the coated, blocked ELISA plates for 1 hour, shaking at room temperature. Phage was subsequently removed from the wells and the ELISA plates were washed three times with PBS/0.05% Tween 20.
(§3) Method A: HRP-conjugated anti-M13-phage antibody (GE Healthcare) at a 1/5000 dilution in PBS was then added to the wells of the ELISA plates for 1 hour, shaking at room temperature. The antibody solution was then removed from the wells and the ELISA plates were washed four times with PBS/0.05% Tween 20. Method B: Biotin-conjugated anti-M13-phage antibody (GE Healthcare) diluted in PBS was then added to the wells of the ELISA plates for 1 hour shaking at room temperature. The antibody solution was then removed from the wells and the ELISA plates were washed three times with PBS/0.05% Tween 20. HRP-conjugated Streptavidin diluted in PBS was then added to the wells of the ELISA plates for 1 hour, shaking at room temperature. The solution was then removed from the wells and the ELISA plates were washed three times with PBS/0.05% Tween 20. ELISAs were developed using TMB substrate and the reaction was stopped using 2 M […] solution.

[2] = molecular target: phage expressed hFn14 mutant A57G (human, UniProt Q9NP84 28-77); assay: as above
phage expressed hFn14 mutant A57G, sequence (Q9NP84 28-77 A57G): as the sequence (Q9NP84 28-77 W42A) above, with A15W, A30G counted along it
From the text: as §1, §2, §3

[3] = molecular target: phage expressed hFn14 mutant P59A (human, UniProt Q9NP84 28-77); assay: as above
phage expressed hFn14 mutant P59A, sequence (Q9NP84 28-77 P59A): as the sequence (Q9NP84 28-77 W42A) above, with A15W, P32A counted along it
From the text: as §1, §2, §3

[4] = molecular target: phage expressed hFn14 mutant S61A (human, UniProt Q9NP84 28-77); assay: as above
phage expressed hFn14 mutant S61A, sequence (Q9NP84 28-77 S61A): as the sequence (Q9NP84 28-77 W42A) above, with A15W, S34A counted along it
From the text: as §1, §2, §3

[5] = molecular target: T2, Histidine tagged hFn14 extracellular domain, bacterially expressed (human, UniProt Q9NP84 28-77); assay: SPR (ProteOn XPR36), mAb coupled to chip, His-tagged hFn14 analyte, Langmuir 1:1 fit
T2 construct: also called recombinant Fn14; recombinant human Fn14; not shown: (His)6 tag from pET-15b
Experimental: The kinetic analysis of the monoclonal antibodies was performed on a ProteOn XPR36 system (BioRad) Laboratories) essentially according to the protocol from Nahshol et al (2008). Monoclonal antibodies against hFn14 (50 μg/ml) were covalently coupled to a GMC chip. Analytes were a serial dilution of bacterially expressed and purified Histidine tagged hFn14. The binding sensorgrams were collected, processed and analyzed using the integrated ProteOn Manager software (BioRad Laboratories). Binding curves were fitted using the Langmuir model describing 1:1 binding stoichiometry.
Binding kinetics of anti-Fn14 antibodies CRCBT-06-001, CRCBT-06-002, CRCBT-06-004, ITEM-1 and ITEM-4 were assessed as described herein and results are set out in Table 4.

[6] = molecular target: T1, Histidine tagged mouse Fn14 …; assay: ELISA with purified His-tagged mouse Fn14; x axis 'Log (c)' without unit, µg/ml by the legend
[7] = molecular target: phage expressed hFn14 mutant H60A (human, UniProt Q9NP84 28-77); assay: phage ELISA (Method 2): antibody coated on the plate, 10-fold dilutions of phage displaying hFn14 H60A; biotin anti-M13 antibody, streptavidin-HRP, TMB, OD 450 nm; x axis = dilution of phage
phage expressed hFn14 mutant H60A, sequence (Q9NP84 28-77 H60A): as the sequence (Q9NP84 28-77 W42A) above, with A15W, H33A counted along it
Experimental: ELISAs showing the reactivity of mutant H60A and H60K hFn14 phage constructs with the anti-Fn14 monoclonal antibodies CRCBT-06-001, CRCBT-06-002, CRCBT-06-004 compared to ITEM-1 and ITEM-4. ITEM-2 was assessed on H60K. Binding was detected using Biotin-conjugated anti-M13-phage monoclonal antibody followed by HRP-conjugated Streptavidin and TMB substrate. Optical density at 450 nm was quantified using a Spectramax spectrophotometer. Error bars for each dilution represent the standard deviation of duplicate assays. X axis=dilution of phage. Methods according to Epitope mapping using phage expressed Fn14—Method 2.
as §2
Method A: HRP-conjugated anti-M13-phage antibody (GE Healthcare) at a 1/5000 dilution in PBS was then added to the wells of the ELISA plates for 1 hour, shaking at room temperature. […]

Row | binding result [1] | binding result [2] | binding result [3] | binding result [4] | Kd [5] | koff [5] | kon [5] | binding result [6] | binding result [7] | Binder
1 | binds | binds | binds | binds | 0.55 nM | 0.000102 s⁻¹ | 186000 M⁻¹ s⁻¹ | binds | binds | CRCBT-06-001 (antibody, IgG2b, V domains shown) VH: QVQLQQSGGGLVQPGGSMKLSCIASGFTFSSYWMSWVRQSPEKGLEWVAEIRSKSDNYATHYAESVKGKFTISRDDSKSRFFLQMNNLRAEDTGIYYCSSTYADYFHYWGQGTDLTVSS VL: DIVMTQTPASLAVSLGQRATISCRASQSVSTSTYSYMHWYQQKPGQPPKLLIKYASSLESGVPARFSGSGSGTDFTLNIHPVEEDDTATYYCQHSWEIPYTFGGGTKLEIKR
2 | binds | binds | binds | binds | 0.198 nM | 2.59e-05 s⁻¹ | 131000 M⁻¹ s⁻¹ | binds | binds | CRCBT-06-002 (antibody, IgG1, V domains shown) VH: EVKLQQSGGGLVQPGGSMKLSCVASGFTFSYYWMNWVRQSPEQGLEWIAEIRLQSNDYPTHYAESVKGRFTISRDDSKNSVYLQMNNLRPEDTGIYYCACRYADYFDHWGQGTTLTVSS VL: DTVLTQSPASLVVSLGQRATISCRASQSVSTSDYSYIHWYQQKPGQPPKFLIKYASNRDSGVPARFSGSGSGTDFTLNIHPVEEDDTAIYYCQHSWEIPPTFGAGTKLELQR
